Test results taken from the supplement of paper PMC9112550, “Optimization of the antimicrobial peptide Bac7 by deep mutational scanning” (BMC Biology, 2022).

Test system: Escherichia coli TOP10
Assay: shrunken log2 fold change of peptide-encoding DNA abundance (4.5 h post-induction vs induction); higher = less antimicrobial activity (less host growth inhibition)
Settings: time post-induction: 4.5 h; library: site-saturation at positions 5, 18, 19, 20
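Note: peptides expressed intracellularly from a pBAD plasmid library in pooled LB shake-flask culture, induced with 0.3% L-arabinose, DNA abundance read by NGS, three biological replicates, DESeq2 with apeglm shrinkage.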

Sequence | shrunken log2 fold change
RRIRHRPPRLPRPRPRPRFDPRP | -0.163
RRIRQRPPRLPRPRPRPGKLPRP | -0.0396
RRIRKRPPRLPRPRPRPCLIPRP | -0.36
RRIRGRPPRLPRPRPRPRNCPRP | 0.0949
RRIRPRPPRLPRPRPRPDLEPRP | 0.063
RRIRWRPPRLPRPRPRPMVAPRP | 0.457
RRIRPRPPRLPRPRPRPNVIPRP | -0.451
RRIRCRPPRLPRPRPRPHWVPRP | -0.0374
RRIRTRPPRLPRPRPRPCDPPRP | -0.072
RRIRERPPRLPRPRPRPWTKPRP | 0.0475
RRIRKRPPRLPRPRPRPFACPRP | -0.0138
RRIRFRPPRLPRPRPRPPTQPRP | 0.327
RRIRGRPPRLPRPRPRPNVVPRP | 0.0631
RRIRWRPPRLPRPRPRPRQAPRP | 0.475
RRIRNRPPRLPRPRPRPEICPRP | 0.0654
RRIRWRPPRLPRPRPRPGTAPRP | 0.392
RRIRTRPPRLPRPRPRPMAQPRP | 0.074
RRIRGRPPRLPRPRPRPWAPPRP | 0.452
RRIRDRPPRLPRPRPRPWGEPRP | 0.0987
RRIRTRPPRLPRPRPRPKCHPRP | -0.0989
RRIRFRPPRLPRPRPRPCHNPRP | -0.0447
RRIRIRPPRLPRPRPRPYTYPRP | -0.705

Sequence | shrunken log2 fold change
RRIRFRPPRLPRPRPRPFYLPRP | -0.787
RRIRYRPPRLPRPRPRPNAKPRP | -0.0394
RRIRTRPPRLPRPRPRPKGHPRP | 0.208
RRIRPRPPRLPRPRPRPCHWPRP | 0.0406
RRIRGRPPRLPRPRPRPPMQPRP | 1.12
RRIRKRPPRLPRPRPRPRLFPRP | 0.104
RRIRSRPPRLPRPRPRPFGCPRP | 0.029
RRIRNRPPRLPRPRPRPHDWPRP | 0.263
RRIRFRPPRLPRPRPRPWQIPRP | -0.0302
RRIRDRPPRLPRPRPRPSCMPRP | 0.0312
RRIRMRPPRLPRPRPRPFMTPRP | 0.0622
RRIRKRPPRLPRPRPRPSIVPRP | -0.059
RRIRQRPPRLPRPRPRPMPWPRP | 0.117
RRIRPRPPRLPRPRPRPQGEPRP | 0.208
RRIRTRPPRLPRPRPRPVEHPRP | 0.0387
RRIRHRPPRLPRPRPRPCQWPRP | -0.0469
RRIRVRPPRLPRPRPRPREDPRP | 0.489
RRIRNRPPRLPRPRPRPDEYPRP | 0.00318
RRIRDRPPRLPRPRPRPLVRPRP | 0.223
RRIRTRPPRLPRPRPRPYKVPRP | -1.32
RRIRHRPPRLPRPRPRPRGNPRP | 0.174
RRIRTRPPRLPRPRPRPENSPRP | 0.032

Sequence | shrunken log2 fold change
RRIRCRPPRLPRPRPRPVTPPRP | 0.23
RRIRDRPPRLPRPRPRPYFSPRP | -0.345
RRIRFRPPRLPRPRPRPGPGPRP | 0.676
RRIRWRPPRLPRPRPRPGTFPRP | -0.0686
RRIRLRPPRLPRPRPRPWAIPRP | -0.0706
RRIRGRPPRLPRPRPRPPFIPRP | 0.627
RRIRFRPPRLPRPRPRPLMRPRP | 0.278
RRIRCRPPRLPRPRPRPLQDPRP | 0.0354
RRIRWRPPRLPRPRPRPEWRPRP | 0.439
RRIRFRPPRLPRPRPRPWEWPRP | 0.0781
RRIRVRPPRLPRPRPRPKFCPRP | -0.137
RRIRRRPPRLPRPRPRPSKFPRP | -0.0219
RRIRGRPPRLPRPRPRPRPHPRP | 0.51
RRIRCRPPRLPRPRPRPKFGPRP | 0.231
RRIRDRPPRLPRPRPRPKEIPRP | 0.0219
RRIRFRPPRLPRPRPRPGHNPRP | -0.409
RRIRERPPRLPRPRPRPCFMPRP | -0.231
RRIRQRPPRLPRPRPRPPRYPRP | 0.606
RRIRGRPPRLPRPRPRPDTYPRP | 0.241
RRIRNRPPRLPRPRPRPQMRPRP | 0.308
RRIRSRPPRLPRPRPRPRHTPRP | 0.0335
RRIRRRPPRLPRPRPRPDLFPRP | 0.41

Sequence | shrunken log2 fold change
RRIRCRPPRLPRPRPRPACVPRP | 0.211
RRIRSRPPRLPRPRPRPMFYPRP | -0.544
RRIRDRPPRLPRPRPRPWHAPRP | -0.134
RRIRMRPPRLPRPRPRPSYGPRP | -0.0196
RRIRPRPPRLPRPRPRPMPEPRP | -0.0242
RRIRARPPRLPRPRPRPWSEPRP | 0.0573
RRIRTRPPRLPRPRPRPAMMPRP | -0.109
RRIRYRPPRLPRPRPRPDFYPRP | -1.15
RRIRRRPPRLPRPRPRPEMHPRP | 0.705
RRIRIRPPRLPRPRPRPMATPRP | -0.0167
RRIRHRPPRLPRPRPRPVYWPRP | -0.262
RRIRCRPPRLPRPRPRPDKEPRP | -0.00172
RRIRNRPPRLPRPRPRPQMVPRP | -0.00674
RRIRERPPRLPRPRPRPVMAPRP | -0.0537
RRIRTRPPRLPRPRPRPSALPRP | -0.178
RRIRLRPPRLPRPRPRPDFFPRP | 0.0131
RRIRPRPPRLPRPRPRPESCPRP | 0.239
RRIRHRPPRLPRPRPRPFGTPRP | -0.213
RRIRGRPPRLPRPRPRPQWVPRP | 0.218
RRIRIRPPRLPRPRPRPQRYPRP | 0.159
RRIRHRPPRLPRPRPRPKPGPRP | 0.21
RRIRDRPPRLPRPRPRPFHKPRP | -0.0864

Sequence | shrunken log2 fold change
RRIRLRPPRLPRPRPRPCMCPRP | -0.967
RRIRNRPPRLPRPRPRPEMDPRP | 0.294
RRIRNRPPRLPRPRPRPRHRPRP | 0.202
RRIRDRPPRLPRPRPRPHQMPRP | 0.00713
RRIRSRPPRLPRPRPRPLCGPRP | 0.0948
RRIRFRPPRLPRPRPRPRVLPRP | 0.121
RRIRPRPPRLPRPRPRPHKIPRP | -0.193
RRIRDRPPRLPRPRPRPHAPPRP | 0.144
RRIRIRPPRLPRPRPRPVCSPRP | -0.174
RRIRWRPPRLPRPRPRPDWWPRP | 0.0352
RRIRSRPPRLPRPRPRPKWPPRP | 0.146
RRIRHRPPRLPRPRPRPTASPRP | -0.131
RRIRERPPRLPRPRPRPYCIPRP | -0.205
RRIRARPPRLPRPRPRPENAPRP | 0.687
RRIRPRPPRLPRPRPRPADVPRP | 0.0118
RRIRERPPRLPRPRPRPQHEPRP | 0.199
RRIRLRPPRLPRPRPRPTPEPRP | 0.181
RRIRPRPPRLPRPRPRPCEMPRP | 2.11
RRIRMRPPRLPRPRPRPKMNPRP | 0.501
RRIRVRPPRLPRPRPRPVGYPRP | -0.0725
RRIRARPPRLPRPRPRPCIGPRP | 0.0942
